According to US20140336202:

Biological target: recombinant PP5 (UniProt P53041)
Sequence (P53041 whole entry): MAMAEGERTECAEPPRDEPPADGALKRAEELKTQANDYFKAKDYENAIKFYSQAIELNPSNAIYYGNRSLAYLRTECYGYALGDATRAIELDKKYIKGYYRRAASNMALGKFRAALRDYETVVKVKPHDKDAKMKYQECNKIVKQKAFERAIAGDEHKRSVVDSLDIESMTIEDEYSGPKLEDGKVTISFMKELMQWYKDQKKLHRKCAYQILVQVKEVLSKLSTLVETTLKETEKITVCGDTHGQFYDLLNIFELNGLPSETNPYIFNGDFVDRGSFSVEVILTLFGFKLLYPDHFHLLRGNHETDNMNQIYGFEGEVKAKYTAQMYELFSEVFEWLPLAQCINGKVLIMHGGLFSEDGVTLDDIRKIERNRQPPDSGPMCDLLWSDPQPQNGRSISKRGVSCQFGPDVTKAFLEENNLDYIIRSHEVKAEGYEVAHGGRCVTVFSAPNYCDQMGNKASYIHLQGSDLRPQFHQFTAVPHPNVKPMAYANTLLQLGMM

Substance	in vitro ubiquitylation of PP5 (immunoblot for PP5)
recombinant Huwe1 C4341S mutant (Huwe1 C/S)	wild type recombinant Huwe1 protein, but not Huwe1(C/S), ubiquitylated recombinant PP5 in vitro
recombinant Huwe1 wild type	in the presence of both E1 and E2, wild type recombinant Huwe1 protein, but not Huwe1(C/S), ubiquitylated recombinant PP5 in vitro
